Results reported in patent publication US20250283886A1.
Values joined by “and” are separate entries in the source; they are usually repeats but may differ in a detail not shown here. Identical values can stand only once. Like-named read-outs stand apart in the source and are kept apart here.

What was measured:
[1] = molecular target: polypeptides with a terminal leucine residue
[2] = molecular target: polypeptides with a terminal leucine residue; remark: listed apart in the source
[3] = molecular target: polypeptides with a terminal leucine residue; assay: single-molecule dwell time analysis
[4] = molecular target: … peptide containing N-terminal phenylalanine; assay: single-molecule recognition of immobilized peptide, 500 nM of each binder
[5] = molecular target: … peptide containing N-terminal phenylalanine; assay: table of pulse statistics of the single-molecule recognition experiment
[6] = molecular target: polypeptides with a terminal leucine residue; assay: single-molecule dwell time analysis, distribution of mean pulse durations, panel Leu; filtered 0.00s≤dur≤20.00s and magnitude above baseline > 15.0
[7] = molecular target: peptide having an N-terminal phenylalanine residue; assay: single-molecule dwell time analysis, distribution of mean pulse durations, panel Phe; filtered 0.00s≤dur≤20.00s and magnitude above baseline > 15.0
[8] = molecular target: peptide having an N-terminal tryptophan residue; assay: single-molecule dwell time analysis, distribution of mean pulse durations, panel Trp; filtered 0.00s≤dur≤20.00s and magnitude above baseline > 15.0
[9] = molecular target: peptide having an N-terminal tyrosine residue; assay: single-molecule dwell time analysis, distribution of mean pulse durations, panel Tyr; filtered 0.00s≤dur≤20.00s and magnitude above baseline > 15.0

B1: ClpS from Thermosynochoccus elongatus (teClpS), labeled (protein)
chain: MPQERQQVTRKHYPNYKVIVLNDDFNTFQHVAACLMKYIPNMTSDRAWELTNQVHYEGQAIVWVGPQEQAELYHEQLLRAGLTMAPLEPE
In the case of B1, the pulse duration M [1] is reported as 0.43 s and 0.5 s, the pulse duration µ [1] is reported as 0.68 s and 0.65 s and the pulse duration M [2] is reported as 0.46 s and 0.63 s. The pulse duration Mo [2] was 0.5 s, the pulse duration µ [2] was 0.74 s and 0.82 s and the mean pulse duration [3] was 0.71 s.

B2: at ClpS1 (Agrobacterium tumifaciens ClpS1) labeled with Cy3, Q8UFN4 1-117 (protein)
chain: MIAEPICMQGEGDGEDGGTNRGTSVITRVKPKTKRPNLYRVLLLNDDYTPMEFVIHILERFFQKDREAATRIMLHVHQHGVGECGVFTYEVAETKVSQVMDFARQHQHPLQCVMEKK
B2 was tested, and the mean pulse duration [4] was 1.3 s, the pulse rate [4] was 8.1 pulses/min and the N pulses [5] was 98. It also gave a median pulse width [5] of 0.63 s.

B3: A. tumefaciens ClpS1 (protein)
chain: MIAEPICMQGEGDGEDGGTNRGTSVITRVKPKTKRPNLYRVLLLNDDYTPMEFVIHILERFFQKDREAATRIMLHVHQHGVGECGVFTYEVAETKVSQVMDFARQHQHPLQCVMEKK
Binder B3 has a mean pulse duration (value at the dashed line) [6] of 0.31 s, a mean pulse duration (value at the dashed line) [7] of 0.59 s and a mean pulse duration (value at the dashed line) [8] of 0.34 s. For the same binder, the mean pulse duration (value at the dashed line) [9] was 0.69 s.
